According to publication PMC13330650 (Matrix biology : journal of the International Society for …, 2025):

Key:
[1] = tested on: UGDH T325D; settings: UGDH T325D obligate dimer; cited from earlier work
[2] = Thermofluor Stability Assay (thermal denaturation) of purified UGDH; format: physicochemical, human; settings: for Tm Apo: apo enzyme; for Tm Holo: holoenzyme complex (substrate and cofactor)
Excerpt: We first generated the UGDH S316 point mutants in a bacterial construct that expressed the proteins with a six-histidine fusion to facilitate purification by nickel affinity chromatography as we have done previously. […] However, UGDH S316D yields were somewhat lower as a result of protein precipitation following purification. To compare the intrinsic stability of the S316 point mutants, we used a modified version of the Thermofluor Stability Assay, which we have used previously as a preliminary indicator of UGDH quaternary assembly. The UGDH WT and UGDH S316A enzymes had significant increases in melting temperature (Tm) upon addition of either substrate or cofactor and were stabilized by almost 20°C in the holoenzyme complex as expected.
Purified S316 mutants were compared to the UGDH WT enzyme using the following approaches as previously described. Enzymatic activity was evaluated by steady state kinetics in the presence and absence of the endogenous inhibitor UDP-Xylose to compare Michaelis constants and IC50 values. Intrinsic stability was assessed by thermal denaturation and quaternary structure was determined by size exclusion chromatography. Binding of UDP-Xylose to recombinant UGDH and mutants was measured by isothermal titration calorimetry using the MicroCal PEAQ-ITC (Malvern Panalytical). UGDH WT (50 μM in 0.1 M sodium phosphate buffer, pH 7.4) was placed in the cell, with UDP-Xyl (250 μM) in the syringe. Binding heats were corrected for the heat of dilution and analyzed using the MicroCal PEAQ-ITC Analysis Software, employing a single-site binding model to determine Kd values.

B1: UGDH T325D: obligate dimeric UGDH mutant, T325 to aspartate (protein, UniProt O60701 1-494, looked up, variant T325D)
UDP-glucose 6-dehydrogenase: MFEIKKICCIGAGYVGGPTCSVIAHMCPEIRVTVVDVNESRINAWNSPTLPIYEPGLKEVVESCRGKNLFFSTNIDDAIKEADLVFISVNTPTKTYGMGKGRAADLKYIEACARRIVQNSNGYKIVTEKSTVPVRAAESIRRIFDANTKPNLNLQVLSNPEFLAEGTAIKDLKNPDRVLIGGDETPEGQRAVQALCAVYEHWVPREKILTTNTWSSELSKLAANAFLAQRISSINSISALCEATGADVEEVATAIGMDQRIGNKFLKASVGFGGSCFQKDVLNLVYLCEALNLPEVARYWQQVIDMNDYQRRRFASRIIDSLFNDVTDKKIAILGFAFKKDTGDTRESSSIYISKYLMDEGAHLHIYDPKVPREQIVVDLSHPGVSEDDQVSRLVTISKDPYEACDGAHAVVICTEWDMFKELDYERIHKKMLKPAFIFDGRRVLDGLHNELQTIGFQIETIGKKVSSKRIPYAPSGEIPKFSLQDPPNKKPKV
Vmax values [1]: 65 to 75 nmol/min/mg

B2: WT: purified recombinant human wild-type UGDH (protein)
chain: MFEIKKICCIGAGYVGGPTCSVIAHMCPEIRVTVVDVNESRINAWNSPTLPIYEPGLKEVVESCRGKNLFFSTNIDDAIKEADLVFISVNTPTKTYGMGKGRAADLKYIEACARRIVQNSNGYKIVTEKSTVPVRAAESIRRIFDANTKPNLNLQVLSNPEFLAEGTAIKDLKNPDRVLIGGDETPEGQRAVQALCAVYEHWVPREKILTTNTWSSELSKLAANAFLAQRISSINSISALCEATGADVEEVATAIGMDQRIGNKFLKASVGFGGSCFQKDVLNLVYLCEALNLPEVARYWQQVIDMNDYQRRRFASRIIDSLFNTVTDKKIAILGFAFKKDTGDTRESSSIYISKYLMDEGAHLHIYDPKVPREQIVVDLSHPGVSEDDQVSRLVTISKDPYEACDGAHAVVICTEWDMFKELDYERIHKKMLKPAFIFDGRRVLDGLHNELQTIGFQIETIGKKVSSKRIPYAPSGEIPKFSLQDPPNKKPKV
modifications: left off: His6, end not stated, state not stated
notes: purified recombinant human wild-type UGDH
Tm Apo [2]: 50±0.4 °C | Tm Holo [2]: 68±1.7 °C

B3: S316D: purified recombinant human UGDH, phosphomimetic serine 316 to aspartate point mutant (protein)
chain: MFEIKKICCIGAGYVGGPTCSVIAHMCPEIRVTVVDVNESRINAWNSPTLPIYEPGLKEVVESCRGKNLFFSTNIDDAIKEADLVFISVNTPTKTYGMGKGRAADLKYIEACARRIVQNSNGYKIVTEKSTVPVRAAESIRRIFDANTKPNLNLQVLSNPEFLAEGTAIKDLKNPDRVLIGGDETPEGQRAVQALCAVYEHWVPREKILTTNTWSSELSKLAANAFLAQRISSINSISALCEATGADVEEVATAIGMDQRIGNKFLKASVGFGGSCFQKDVLNLVYLCEALNLPEVARYWQQVIDMNDYQRRRFADRIIDSLFNTVTDKKIAILGFAFKKDTGDTRESSSIYISKYLMDEGAHLHIYDPKVPREQIVVDLSHPGVSEDDQVSRLVTISKDPYEACDGAHAVVICTEWDMFKELDYERIHKKMLKPAFIFDGRRVLDGLHNELQTIGFQIETIGKKVSSKRIPYAPSGEIPKFSLQDPPNKKPKV
modifications: left off: His6, end not stated, state not stated
notes: purified recombinant human UGDH, phosphomimetic serine 316 to aspartate point mutant
Tm Apo [2]: 47±1.0 °C | Tm Holo [2]: 63±0.3 °C

B4: S316A: purified recombinant human UGDH, phosphodeficient serine 316 to alanine point mutant (protein)
chain: MFEIKKICCIGAGYVGGPTCSVIAHMCPEIRVTVVDVNESRINAWNSPTLPIYEPGLKEVVESCRGKNLFFSTNIDDAIKEADLVFISVNTPTKTYGMGKGRAADLKYIEACARRIVQNSNGYKIVTEKSTVPVRAAESIRRIFDANTKPNLNLQVLSNPEFLAEGTAIKDLKNPDRVLIGGDETPEGQRAVQALCAVYEHWVPREKILTTNTWSSELSKLAANAFLAQRISSINSISALCEATGADVEEVATAIGMDQRIGNKFLKASVGFGGSCFQKDVLNLVYLCEALNLPEVARYWQQVIDMNDYQRRRFAARIIDSLFNTVTDKKIAILGFAFKKDTGDTRESSSIYISKYLMDEGAHLHIYDPKVPREQIVVDLSHPGVSEDDQVSRLVTISKDPYEACDGAHAVVICTEWDMFKELDYERIHKKMLKPAFIFDGRRVLDGLHNELQTIGFQIETIGKKVSSKRIPYAPSGEIPKFSLQDPPNKKPKV
modifications: left off: His6, end not stated, state not stated
notes: purified recombinant human UGDH, phosphodeficient serine 316 to alanine point mutant
Tm Apo [2]: 49±0.2 °C | Tm Holo [2]: 66±3.0 °C
